{"source": "paper PMC3518024", "binders": {"B1": {"name": "AaBoxA 12-mer RNA self-duplex (supercoil-forming) (dsRNA)", "RNA 1": "GGCUCCUUGGCA", "RNA 2": "GGCUCCUUGGCA"}}, "target": "T1, AaNusB (Aquifex aeolicus, UniProt O66530 1-148)", "T1 sequence": "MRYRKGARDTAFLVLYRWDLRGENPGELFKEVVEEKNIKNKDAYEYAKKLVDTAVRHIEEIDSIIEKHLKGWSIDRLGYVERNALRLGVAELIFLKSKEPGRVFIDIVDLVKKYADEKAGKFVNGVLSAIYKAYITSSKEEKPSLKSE", "test": "X-ray crystallography"}
{"binder": "B1", "values": [{"measurement": "binding result", "value": "binds"}]}
